The target in this test is CD20 on ARH-77 tumor cells (CD20+ plasma cell leukemia cell line, ATCC CRL-1621) (human) (UniProt P11836). The experiment in a line: cell-based or functional assay.
UniProt P11836, sequence (P11836 whole entry): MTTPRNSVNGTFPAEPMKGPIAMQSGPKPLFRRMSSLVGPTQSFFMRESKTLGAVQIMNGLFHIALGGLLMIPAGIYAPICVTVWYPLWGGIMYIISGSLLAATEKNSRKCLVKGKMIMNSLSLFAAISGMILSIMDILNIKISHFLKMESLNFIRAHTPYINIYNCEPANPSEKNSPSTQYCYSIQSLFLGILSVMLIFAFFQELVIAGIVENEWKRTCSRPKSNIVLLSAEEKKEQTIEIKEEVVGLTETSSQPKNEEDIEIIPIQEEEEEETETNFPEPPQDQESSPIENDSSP

obinutuzumab (antibody) came in with an AB-101 killing activity (ADCC, 4 hour caspase assay against ARH-77 cells) of 66 fold.

The values are drawn from patent US20240180962A1.
